# pKd: −log10 of the molar value.
# Legend:
# [1] = molecular target: fluorescently Ct-labeled six-residue peptide bearing Nt-Asp; experiment: fluorescence polarisation
# [2] = molecular target: fluorescently Ct-labeled six-residue peptide bearing Nt-Glu; experiment: fluorescence polarisation
substance,measurement,setting,value
"klAte1, the Ate1 arginyl-tRNA-protein transferase (R-transferase) of Kluyveromyces lactis (enzyme)",pKd,[1],< 4.00
same,pKd,[2],< 4.00
